From the DeepSol protein solubility set

Experiment: soluble on expression in E. coli; label from the status in PepcDB or PDB records

Sequence: DLTAIIGLEVHVQLETDTKIFCGCSTDTDDADPNTHTCPVCLGLPGALPTLNEGAVEAAVKLGKAIDADIPERTRFHRKNYFYPDLPKGFQITQYDAPICQDGELEVGTADDRRAIGIERAHLEEDPGSLQHVGGSIEDADYTLVDYNRAGTPLMEIVTRPDFRAAEEVRSFLAKLTSVLEYLGVFDAERDGSLRVDANISMVDSAELAGEGGPSDDVLEAANRTEVKNISSHRAAQKALAYETTRQRNQLER
- soluble on expression in E. coli: not soluble

Sequence: MSLTLISLQTFAAAWEEKLYNPMPDAEDVVLPMPCDGAMVFRKVYIPLAGPLDDYPVNIGGDNAEYGYVEQTHPAFIAGSFTTEKNAKSRYYLLAKYEMTVLQYSALTQAECPAPSNKQRLPVVSLSWMQAMEAADKYNIWLRENAADKLPKEDGVAGFLRLPTEVEWEFAARGGLNVSTAEFRDLRYPMPEGVNAYEWFAGTQSANGQLQLSGLLKPNPLGLHDMLGNVDEMMFEPFRLNKLDRQHGQAGGYVVRGGDFRTAQGELRSSLRKERNYYDAKAAATSKTTGVRLALASSTLTSRERVSSIETSWKEGHHHHHH
- soluble on expression in E. coli: not soluble

Sequence: MVLPLSLLKTAQNHPMLVELKNGETYNGHLKACDSWMNIHLVDVIFTSKDGDKFFKMSEAYVRGSTIKYLRIPETVVDLVKTEVNEVRRQQQREQSRGRGGGRGGRGGHRGGGGNRGGRGGAR
- soluble on expression in E. coli: not soluble

Sequence: MDSKAKQMILSALCKHFSLDPEPFVGGAGESDIKTLYSNVLKASGKEVSAQNNDVLKWLDFAEGFSSDSKDWFSALEKLNLELATKSVLLGNGLTPSAADVAVFSALHSSVLGLSDSDKEKVPHVIRWVNYIQNKEELSTLFAPIPVKLPEFSFEVPKPAIKVETNSNSKKAAEGVKPVDKPDVQPQLGTKKTEPEEPKKNAAKEKDAKKEKKKPAEPEPAKKEAELSVSLLNIQVGLIRKAWKHPSADSLLVEEIDVGEDKVRQVVSGLAKFCSPEDLTNRLVALITNVKPGKLRDVMSQGLVLCASSEDHSVVEPLLPPAGAKPGERVSFSGIEGKPEDVLNPKKKQLEKITPGLYTDENGVATYKGIQFMTSAGPCTSSIPKATIK
- soluble on expression in E. coli: soluble

Sequence: DKVSLKLPKSNGELFEFKWLDHKIAYIALNGFHDKKILQDFNDVYDEIKQSRGLIIDLRFNGGGNSSIAAEILSHFTNKGLEGSIWKNRKHIAAFKAWGNYSGKYKIYAQDNAWESGAMESLKAKENSHIVPTYVLIGRNTASAAEDFLIYADKLKHFTTLGENTYGSTGQPIFFDLPGGGSFRICTKRDTYPDGREFVGYGITPQVIIDRMPEHLRSEKDIVLYSAIKKLKEKI
- soluble on expression in E. coli: not soluble

Sequence: MGSDKIHHHHHHMKGSTDLESRLPSAGAYGDRFASYFKLAKASVFKTGSLRTGEIAYTETSGYCHKPEPSVPVPPEDAFLVQTQLQDYPNHISWEDGRPGIVGTLRAGHTILRDLQRKPNAIIMGPHHTVHFYIPRATFNTVAEDLEARSISELAYVPAQPIDDDVIRGLIGTVRAAIKAPEETNRLFLDHLMMAAAVHLAQTYGGLKPRSLQHRGGLAPWQARLAIELLEGDLTGQLPLKDVAAACKLSVSYFSKAFCKTTGLAPHQWLLYRRVERAKSAMINEKTTLAEVALSCGFSDQSHFTRVFVRLVGTSPATWRRARNL
- soluble on expression in E. coli: not soluble

Sequence: MGSDKIHHHHHHMIMATLKDIAKLAKVSQATVSRVLNKDETLSVSQKTKHRILMVADELGYQKHLKTTNSPQVRQKIAIVQWYSQQEELNDLYYYSIRIGIEKRAQELDYDIVRYFDNDISKVSADIVGLIAIGKFSTYQIAELEKLSDKLIFVDSDTLNAGYPCVMTDFDNAVVKVLDYFLDHGLTKIGMIAGEEKTTDGRELLIDQRFRTFRNYAYEQDIYNPNYIFIGDFSAQTGYHLMKKAIKELKENLPQAFFIANDSLAIGALRALQEANIPVPNRVSLISFNDTALTKQVFPALSSITVFTKEMGRTAVDILNRQILNPDIIPSMTRLTTQLTLRESSI
- soluble on expression in E. coli: not soluble

Sequence: MSLSGRYNMNIILGATGQVGSMLVDNLLGKGQPVRAVVRDGLKAQGLKNKGVEVKIADYLDVEALKKAFQGGSSVFLLTPENPESENFINEIQRIMSNYREAVLSSGISKIVGLSSMGAQHKSGTGNLMASYMLEHAFSDLEIEQVFVRPAYYFSNWLGYLELVREYGILPTFFPPELELPMIAPPDVAGFLSDVMTCKTQQERIYEISGPHDYSSSDIAKIFGDVLNKNVTLQQVLPEEWENTLIQAGFSKDGTRNLMLMTKAVIDGKTKNETTNRLRFSTNFKNYLQSVILNMSEGHHHHHH
- soluble on expression in E. coli: soluble

Sequence: MSEVPHFVLYEHAAGYALMKIKEFDDAGLILQEVDAAHADGYKFSQIVELASFDPFKNTEAALENCNSISEGLAHPDLTNFLQKSLPKKKKHVVLGINDSKLAGSLTEAFPDLKLVFGGVITEILRGTRVHFERLAKNLPHHSLSKAQLSLGHSYSRSKVKFDVHRVDNMVIQSIALLDQLDKDINLFGMRIREWYSYHYPELFRLAPDQYKYSRLAVAILDRNKMAENENLENEILEILDNDSEKTAQIIEAARTSMGMDISDLDLENIKRFAARVSSLMEYRQQLHEYIKDRMDHCAPSLSALIGEQVGARLISHAGSLTNLAKYPASTVQILGAEKALFRALKTRSNTPKYGLLFHSSFIGKAGTKNKGRVSRYLANKCSIAARVDCFSETPVSTYGEFLRQQVEDRLEYFTSGTVPKKNIDVMKEAEEAAVEVKEKVIKKKKKAAKKAKRLAEESVTATAEAEVDEDAPKPKKKKKSKAGDE
- soluble on expression in E. coli: not soluble

Sequence: MAPDLSGTWYVLEGDPGEHLVVEALGERLSGIWTSRELAEAFLAHHPHLGMRVSALESRALKEAYLRALGMLQVEAVMVDYRPGTHRAQVARVKDLLEEVRRA
- soluble on expression in E. coli: soluble

Sequence: MKEEIIIAGFGGQGVLSMGKILAYSGLMEGKEVTWMPAYGPEQRGGTANVTVIVSDDKISSPILSKYDTAIILNQPSLEKFESRVKPGGILIYDGYGIINPPTRKDIKVYRIDAMDAANEMNNAKAFNMIVLGGLLKLRPIVTLENVVKGLKKTLPERHHHLIPMNEEAIKKGMELIRE
- soluble on expression in E. coli: not soluble

Sequence: MGSDKIHHHHHHMMDTVKNRRTIRKYQQKDITPDLLNDLLETSFRASTMGGMQLYSVVVTRDAEKKEILSPAHFNQPMVKEAPVVLTFCADFRRFCKYCQERNAVPGYGNLMSFLNAAMDTLLVAQTFCTLAEEAGLGICYLGTTTYNPQMIIDALHLPELVFPITTVTVGYPAESPKQVDRLPIEGIIHEESYHDYTAEDINRLYAYKESLPENKLFIEENQKETLPQVFTDVRYTKKDNEFMSENLLKVLRRQGFMD
- soluble on expression in E. coli: not soluble

Sequence: LSIPEDYQVRLQPTRVAGSYPLVRLEFTGATVDAPLMTQIARKYNIDVSILSSDLDYAGGVKFGMMVAEIFGNADDDEAAIRYLRENNVKVEVLGYVL
- soluble on expression in E. coli: not soluble

Sequence: MDITNLIELETICLDLKAQTKDEALKELVEMLEAAGKLNSQSQFLADIWKREEIGNTGFDDGIAIPHAKSDAVAKPAVAVGISRNGIDYGAEDGELSDVFFMLASPDGDDHHHIEVLAQISTKIIEDGFVEKLKQAQSREEALEMLTDIQTQSNEFLPTSLEFASEPLSPWAQKLGRIKEH
- soluble on expression in E. coli: not soluble

Sequence: MGSSHHHHHHSSGLVPRGSSGHVGLRNLGNTCFLNAVLQCLSSTRPLRDFCLRRDFRQEVPGGGRAQELTEAFADVIGALWHPDSCEAVNPTRFRAVFQKYVPSFSGYSQQDAQEFLKLLMERLHLEINRRGRRAPPILANGPVPSPPRRGGALLEEPELSDDDRANLMWKRYLEREDSKIVDLFVGQLKSCLKCQACGYRSTTFEVFCDLSLPIPKKGFAGGKVSLRDCFNLFTKEEELESENAPVCDRCRQKTRSTKKLTVQRFPRILVLHLNRFSASRGSIKKSSVGVDFPLQRLSLGDFASDKAGSPVYQLYALCNHSGSVHYGHYTALCRCQTGWHVYNDSRVSPVSENQVASSEGYVLFYQLMQEPP
- soluble on expression in E. coli: soluble

Sequence: GPLGSMKLLVVDDSSTMRRIIKNTLSRLGYEDVLEAEHGVEAWEKLDANADTKVLITDWNMPEMNGLDLVKKVRSDSRFKEIPIIMITTEGGKAEVITALKAGVNNYIVKPFTPQVLKEKLEVVLGTND
- soluble on expression in E. coli: soluble

Sequence: RKYAFEDVFRVGREDVNEMADRILNSLSSYKPRVGCIAFSGGVDSSLLAALYDAPLVSVTASDAEEEWLKTAARMLGKEIEILKVGESAIREVVDTVRKTIETGDFLQLSIAVPVYLTMQFAKSLGFTEIIFGQGADELFGGYKRYEGLSEHELEDALVKDLKSIGESNLVRDCKLAYKNEIKLVTPYLCWDVIDAALKIPPEYKVRREGGKVVRKYILRKIAEKFLPEEIAWRDKKAIQYSTGIAKI
- soluble on expression in E. coli: not soluble

Sequence: MDDLEGKKCIGCQKPAKLRCPTCIKMSLPDAYFCDQSCFKAFWPIHKFSHSDVNGPYNPWPCYSFTGSLRPGRVTDRRPVPDHIPRPDYALHPQGVSLEERQSKSERVIKVLTDEEKEGLKVACKLGRECLNEAAKACGPGVTTEEIDRVVHEAAIERDCYPSPLGYYKFPKSCCTSVNEVICHGIPDMRKLENGDLCNVDVTVYHRGFHGDLNETFLVGDKVDEESRKLVKVTFECLQQAIAIVKPGVKFREIGNVIQKHANANGFSVVKGYCGHGIHRLFHTAPNVPHYAKNNATGVMKAGNSFTIEPMINAGTYHDDKWPDDWTAVTRDGRRSAQFEQTLLVTDTGCEILTKRDGNRPWFMDQIEQSY
- soluble on expression in E. coli: soluble

Sequence: EESPFVGNPGNITGARGLTGTLRCQLQVQGEPPEVHWLRDGQILELADSTQTQVPLGEDEQDDWIVVSQLRITSLQLSDTGQYQCLVFLGHQTFVSQPGYVGLEGLPYFLEEPEDRTVAANTPFNLSCQAQGPPEPVDLLWLQDAVPLATAPGHGPQRSLHVPGLNKTSSFSCEAHNAKGVTTSRTATITVLPQQ
- soluble on expression in E. coli: soluble

Sequence: MTVLEAVLEIQAITGSRLLSMVPGPARPPGSCWDPTQCTRTWLLSHTPRRRWISGLPRASCRLGEEPPPLPYCDQAYGEELSIRHRETWAWLSRTDTAWPGAPGVKQARILGELLLV
- soluble on expression in E. coli: not soluble

Sequence: GPGSMLHIDFCIAADAQEALEESGKPNTATVAVPIILEKEVLKLLAPPVCSSDGGFEYDLNATRTLLGAKGATAAYIVVRTAPSTQYVVIYVSDTTSAKNRMLYSTGLSRVVEATPHAQKRTVRISSVSELLPSLFEAESKKVKEALMTESERHHAAIARMEVAPQPVALPGVAVQITTDADDGLSQFAGGAVEVATFKIEAGQLQLDKTVAQLNGNLDQVKSILTDADPRFVLLRYPSPKTQLAEAVMVYVCPPTCSPKIKIQYASSAAAFREQALRHKIQLAHKVETDTTATLADDVRSAFEPFPSADARKTHGRLSSCPPTSWAPKGHSMLI
- soluble on expression in E. coli: soluble

Sequence: MADFKVLSSQDIMWALHELKGHYAITRKDFESHQHMENLTSQDEVPRDTRPFLMPLKNGRSYHQKPVEKGKREKK
- soluble on expression in E. coli: not soluble

Sequence: MSGHKCSYPWDLQDRYAQDKSVVNKMQQKYWETKQAFIKATGKKEDEHVVASDADLDAKLELFHSIQRTCLDLSKAIVLYQKRICFLSQEENELGKFLRSQGFQDKTRAGKMMQATGKALCFSSQQRLALRNPLCRFHQEVETFRHRAISDTWLTVNRMEQCRTEYRGALLWMKDVSQELDPDLYKQMEKFRKVQTQVRLAKKNFDKLKMDVCQKVDLLGASRCNLLSHMLATYQTTLLHFWEKTSHTMAAIHESFKGYQPYEFTTLKVWKLEGPLENLEKSKVLFISQAKSIAESIIIPGLRMLKRELCPQQSLFLSFFLFFYCIRIQYNENLLQSKSAN
- soluble on expression in E. coli: soluble
